In article PMC9519043:

Legend:
[1] = molecular target: SARS-CoV-2 B.1.1.7 (S protein) (SARS-CoV-2 variant B.1.1.7) (UniProt P0DTC2); test: microfluidic affinity capture, RT-qPCR; settings: 5' amino C12 linker and TEG spacer 9; 3' inverted dT; SPR (BIAcore T200, […], pH not stated; […]
[2] = molecular target: SARS-CoV-2 B.1.1.7 (S protein) (SARS-CoV-2 variant B.1.1.7) (UniProt P0DTC2); test: SPR; settings: SPR (BIAcore T200, […], pH not stated
[3] = molecular target: SARS-CoV-2 B.1.351 (S protein) (SARS-CoV-2 variant B.1.351) (UniProt P0DTC2); test: SPR; settings: SPR (BIAcore T200, […], pH not stated

| Sequence | binding signal [1] [% recovery] | Kd [2] [nM] | Kd [3] [nM] |
| --- | --- | --- | --- |
| CAGCACCGACCTTGTGCTTTGGGAGTGCTGGTCCAAGGGCGTTAATGGACA [51-nt SARS-CoV-2 aptamer, chip form] | 35 | – | – |
| CAGCACCGACCTTGTGCTTTGGGAGTGCTGGTCCAAGGGCGTTAATGGACA [51-nt SARS-CoV-2 aptamer (Song et al.), SPR form] | – | 1000 | 1000 |
